Test [1] deals with T1, human Necl1 expressed on transduced EL4 cells (human, UniProt Q8N126 25-398).
T1 construct: whole, on cells
T1 sequence (looked up): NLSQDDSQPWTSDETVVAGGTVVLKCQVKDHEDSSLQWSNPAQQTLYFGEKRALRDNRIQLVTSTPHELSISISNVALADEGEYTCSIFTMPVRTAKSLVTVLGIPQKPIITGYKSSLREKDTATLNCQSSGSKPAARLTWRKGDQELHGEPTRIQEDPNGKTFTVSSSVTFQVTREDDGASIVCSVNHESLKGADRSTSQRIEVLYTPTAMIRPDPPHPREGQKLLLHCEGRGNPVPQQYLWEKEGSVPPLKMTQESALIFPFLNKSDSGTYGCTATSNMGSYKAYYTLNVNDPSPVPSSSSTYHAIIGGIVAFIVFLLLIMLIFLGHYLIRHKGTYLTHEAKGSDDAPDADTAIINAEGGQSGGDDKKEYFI
Kind of test: flow cytometry on transduced EL4 cells. (A flow cytometer gives signals particle by particle.)

Test [2] deals with T2, human LDCAM, full length membrane-bound, expressed on transfected or transduced cells (human, UniProt Q9BY67 39-442).
T2 construct: also called B7L-1 counter receptor; Igsf4
T2 sequence: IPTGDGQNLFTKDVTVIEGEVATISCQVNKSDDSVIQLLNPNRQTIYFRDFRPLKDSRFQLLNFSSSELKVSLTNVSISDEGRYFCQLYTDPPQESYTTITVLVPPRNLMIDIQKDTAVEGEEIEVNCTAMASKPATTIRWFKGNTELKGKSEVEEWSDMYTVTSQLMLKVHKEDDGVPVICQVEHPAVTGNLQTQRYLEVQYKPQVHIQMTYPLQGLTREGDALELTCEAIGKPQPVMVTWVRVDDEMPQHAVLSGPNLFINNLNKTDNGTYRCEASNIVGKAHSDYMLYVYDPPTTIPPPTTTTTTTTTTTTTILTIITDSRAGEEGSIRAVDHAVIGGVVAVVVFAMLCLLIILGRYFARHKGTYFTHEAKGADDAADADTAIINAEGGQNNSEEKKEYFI
Kind of test: flow cytometry on EL4 cells transduced with human LDCAM (legend of FIG. 15).

B1: soluble recombinant human CRTAM-Fc (Fc fusion)
chain: SLTNHTETITVEEGQTLTLKCVTSLRKNSSLQWLTPSGFTIFLNEYPALKNSKYQLLHHSANQLSITVPNVTLQDEGVYKCLHYSDSVSTKEVKVIVLATPFKPILEASVIRKQNGEEHVVLMCSTMRSKPPPQITWLLGNSMEVSGGTLHEFETDGKKCNTTSTLIILSYGKNSTVDCIIRHRGLQGRKLVAPFRFEDLVTDEETASDALERNSLSTQDPQQPTSTVSVTEDSSTSEIDKEEKEQTTQDPDLTTEANPQYLGLARKKSG
notes: also called huCRTAM-Fc; not shown: Fc part not described
For B1, the binding result in test [1] was “no binding”; in test [2], “binds”.

These data come from US7267960 (Amgen, dated 2007).
